We go through 7 molecules from publication PMC9440017, “Structural basis for Gemin5 decamer-mediated mRNA binding” (Nature Communications, 2022).

As usually defined, the Kd is a measure of binding affinity in units of concentration. Low readings indicate tighter binding, high ones weaker binding. Usually stoichiometry N stands for the number of molecules, sites or subunits per partner or assembly.

Series [1] has as its target G5C (Gemin5 841-1508) wild type (Homo sapiens) (UniProt Q8TEQ6). Briefly: fluorescence polarization. Conditions: EMSA: 20 mM Tris-HCl pH 7.5, 100 mM NaCl, 1 h on ice, 0.35 uM RNA; FP: 20 mM Tris-HCl pH 7.5, 150 mM NaCl, 10 nM RNA (40 nM U7), protein 0-41 uM, temperature ….
Series [2] has as its system G5C A951E (Homo sapiens). As to the kind of experiment: fluorescence polarization. The note with it: EMSA: 20 mM Tris-HCl pH 7.5, 100 mM NaCl, 1 h on ice, 0.35 uM RNA; FP: 20 mM Tris-HCl pH 7.5, 150 mM NaCl, 10 nM RNA (40 nM U7), protein 0-41 uM, temperature …. (In general: In fluorescence polarisation assays a small probe gives low polarisation when free and higher when bound to something large.)

Series [3] concerns G5C M4 (Homo sapiens). As to the kind of experiment: fluorescence polarization. Conditions: EMSA: 20 mM Tris-HCl pH 7.5, 100 mM NaCl, 1 h on ice, 0.35 uM RNA; FP: 20 mM Tris-HCl pH 7.5, 150 mM NaCl, 10 nM RNA (40 nM U7), protein 0-41 uM, temperature ….
Series [4] deals with the molecule itself. Briefly: SEC; size-exclusion chromatography of purified G5C wild type and mutants against a molecular weight marker; self-association.
Series [5] deals with the molecule itself. Briefly: SEC-MALS; Superose 6 Increase 10/300 GL coupled to DAWN HELEOS 8+; 100 ul at 1 mg/ml; 20 mM Tris-HCl pH 7.5, 330 mM NaCl; self-association. A general note: SEC sorts molecules by how far they enter the pores of the column.

Values joined by “and” are separate entries in the source; they are usually repeats but may differ in a detail not shown here. Equal values may be shown once.

For the molecule SL1 RNA, FAM (FP), the Kd is 6.5 µM in series [1], 32 µM in series [2] and 138 µM in series [3].

B1: G5C K1363A/K1436A/R1437A/R1444A/K1492A mutant (domain or fragment, human, UniProt Q8TEQ6 841-1508, looked up)
chain: KKRKARSLLPLSTSLDHRSKEELHQDCLVLATAKHSRELNEDVSADVEERFHLGLFTDRATLYRMIDIEGKGHLENGHPELFHQLMLWKGDLKGVLQTAAERGELTDNLVAMAPAAGYHVWLWAVEAFAKQLCFQDQYVKAASHLLSIHKVYEAVELLKSNHFYREAIAIAKARLRPEDPVLKDLYLSWGTVLERDGHYAVAAKCYLGATCAYDAAKVLAKKGDAASLRTAAELAAIVGEDELSASLALRCAQELLLANNWVGAQEALQLHESLQGQRLVFCLLELLSRHLEEKQLSEGKSSSSYHTWNTGTEGPFVERVTAVWKSIFSLDTPEQYQEAFQKLQNIKYPSATNNTPAKQLLLHICHDLTLAVLSQQMASWDEAVQALLRAVVRSYDSGSFTIMQEVYSAFLPDGCDHLRDKLGDHQSPATPAFKSLEAFFLYGRLYEFWWSLSRPCPNSSVWVRAGHRTLSVEPSQQLDTASTEETDPETSQPEPNRPSELDLRLTEEGERMLSTFKELFSEAHASLQNSQRTVAEVQETLAEMIRQHQKSQLCKSTANGPDKNEPEVEAEQPLCSSQSQCKEEKNEPLSLPELTAALTEANQAMAKFPESIKAWPFPDVLECCLVLLLIRSHFPGCLAQEMQQQAQELLQAYGNTKTYRRHCQTFCM
notes: Gemin5, human, residues 841-1508 with K1363A, K1436A, R1437A, R1444A and K1492A; also called M5; source: E. coli BL21 (DE3), purified in the same way as wild-type G5C; not shown: His6, N-terminal, cleaved; copies: 10
In the case of B1, in series [4], the “stoichiometry N” value was 10.

B2: G5C L1469H single mutant (domain or fragment, human, UniProt Q8TEQ6 841-1508, looked up)
chain: KKRKARSLLPLSTSLDHRSKEELHQDCLVLATAKHSRELNEDVSADVEERFHLGLFTDRATLYRMIDIEGKGHLENGHPELFHQLMLWKGDLKGVLQTAAERGELTDNLVAMAPAAGYHVWLWAVEAFAKQLCFQDQYVKAASHLLSIHKVYEAVELLKSNHFYREAIAIAKARLRPEDPVLKDLYLSWGTVLERDGHYAVAAKCYLGATCAYDAAKVLAKKGDAASLRTAAELAAIVGEDELSASLALRCAQELLLANNWVGAQEALQLHESLQGQRLVFCLLELLSRHLEEKQLSEGKSSSSYHTWNTGTEGPFVERVTAVWKSIFSLDTPEQYQEAFQKLQNIKYPSATNNTPAKQLLLHICHDLTLAVLSQQMASWDEAVQALLRAVVRSYDSGSFTIMQEVYSAFLPDGCDHLRDKLGDHQSPATPAFKSLEAFFLYGRLYEFWWSLSRPCPNSSVWVRAGHRTLSVEPSQQLDTASTEETDPETSQPEPNRPSELDLRLTEEGERMLSTFKELFSEKHASLQNSQRTVAEVQETLAEMIRQHQKSQLCKSTANGPDKNEPEVEAEQPLCSSQSQCKEEKNEPLSLPELTKRLTEANQRMAKFPESIKAWPFPDVLECCLVLLHIRSHFPGCLAQEMQQQAQELLQKYGNTKTYRRHCQTFCM
notes: Gemin5, human, residues 841-1508 with L1469H; also called M3; source: E. coli BL21 (DE3), purified in the same way as wild-type G5C; not shown: His6, N-terminal, cleaved; copies: 10
B2: the “stoichiometry N” value in series [4] amounted to 10.

B3: G5C L1468D/L1469D double mutant (domain or fragment, human, UniProt Q8TEQ6 841-1508, looked up)
chain: KKRKARSLLPLSTSLDHRSKEELHQDCLVLATAKHSRELNEDVSADVEERFHLGLFTDRATLYRMIDIEGKGHLENGHPELFHQLMLWKGDLKGVLQTAAERGELTDNLVAMAPAAGYHVWLWAVEAFAKQLCFQDQYVKAASHLLSIHKVYEAVELLKSNHFYREAIAIAKARLRPEDPVLKDLYLSWGTVLERDGHYAVAAKCYLGATCAYDAAKVLAKKGDAASLRTAAELAAIVGEDELSASLALRCAQELLLANNWVGAQEALQLHESLQGQRLVFCLLELLSRHLEEKQLSEGKSSSSYHTWNTGTEGPFVERVTAVWKSIFSLDTPEQYQEAFQKLQNIKYPSATNNTPAKQLLLHICHDLTLAVLSQQMASWDEAVQALLRAVVRSYDSGSFTIMQEVYSAFLPDGCDHLRDKLGDHQSPATPAFKSLEAFFLYGRLYEFWWSLSRPCPNSSVWVRAGHRTLSVEPSQQLDTASTEETDPETSQPEPNRPSELDLRLTEEGERMLSTFKELFSEKHASLQNSQRTVAEVQETLAEMIRQHQKSQLCKSTANGPDKNEPEVEAEQPLCSSQSQCKEEKNEPLSLPELTKRLTEANQRMAKFPESIKAWPFPDVLECCLVLDDIRSHFPGCLAQEMQQQAQELLQKYGNTKTYRRHCQTFCM
notes: Gemin5, human, residues 841-1508 with L1468D and L1469D; also called M1; source: E. coli BL21 (DE3), purified in the same way as wild-type G5C; not shown: His6, N-terminal, cleaved
With B3, in series [4], the “stoichiometry N” value is 2 and 4.

B4: G5C R1035A/K1061A/K1062A/R1090A quadruple mutant (domain or fragment, human, UniProt Q8TEQ6 841-1508, looked up)
chain: KKRKARSLLPLSTSLDHRSKEELHQDCLVLATAKHSRELNEDVSADVEERFHLGLFTDRATLYRMIDIEGKGHLENGHPELFHQLMLWKGDLKGVLQTAAERGELTDNLVAMAPAAGYHVWLWAVEAFAKQLCFQDQYVKAASHLLSIHKVYEAVELLKSNHFYREAIAIAKARLRPEDPVLKDLYLSWGTVLEADGHYAVAAKCYLGATCAYDAAKVLAAAGDAASLRTAAELAAIVGEDELSASLALACAQELLLANNWVGAQEALQLHESLQGQRLVFCLLELLSRHLEEKQLSEGKSSSSYHTWNTGTEGPFVERVTAVWKSIFSLDTPEQYQEAFQKLQNIKYPSATNNTPAKQLLLHICHDLTLAVLSQQMASWDEAVQALLRAVVRSYDSGSFTIMQEVYSAFLPDGCDHLRDKLGDHQSPATPAFKSLEAFFLYGRLYEFWWSLSRPCPNSSVWVRAGHRTLSVEPSQQLDTASTEETDPETSQPEPNRPSELDLRLTEEGERMLSTFKELFSEKHASLQNSQRTVAEVQETLAEMIRQHQKSQLCKSTANGPDKNEPEVEAEQPLCSSQSQCKEEKNEPLSLPELTKRLTEANQRMAKFPESIKAWPFPDVLECCLVLLLIRSHFPGCLAQEMQQQAQELLQKYGNTKTYRRHCQTFCM
notes: Gemin5, human, residues 841-1508 with R1035A, K1061A, K1062A and R1090A; also called M4; source: E. coli BL21 (DE3), purified in the same way as wild-type G5C; not shown: His6, N-terminal, cleaved; copies: 10
In the case of B4, in series [4], the “stoichiometry N” value amounted to 10.

B5: Gemin5 C-terminal fragment (Gemin5 841-1508), wild type (domain or fragment, human, UniProt Q8TEQ6 841-1508, looked up)
chain: KKRKARSLLPLSTSLDHRSKEELHQDCLVLATAKHSRELNEDVSADVEERFHLGLFTDRATLYRMIDIEGKGHLENGHPELFHQLMLWKGDLKGVLQTAAERGELTDNLVAMAPAAGYHVWLWAVEAFAKQLCFQDQYVKAASHLLSIHKVYEAVELLKSNHFYREAIAIAKARLRPEDPVLKDLYLSWGTVLERDGHYAVAAKCYLGATCAYDAAKVLAKKGDAASLRTAAELAAIVGEDELSASLALRCAQELLLANNWVGAQEALQLHESLQGQRLVFCLLELLSRHLEEKQLSEGKSSSSYHTWNTGTEGPFVERVTAVWKSIFSLDTPEQYQEAFQKLQNIKYPSATNNTPAKQLLLHICHDLTLAVLSQQMASWDEAVQALLRAVVRSYDSGSFTIMQEVYSAFLPDGCDHLRDKLGDHQSPATPAFKSLEAFFLYGRLYEFWWSLSRPCPNSSVWVRAGHRTLSVEPSQQLDTASTEETDPETSQPEPNRPSELDLRLTEEGERMLSTFKELFSEKHASLQNSQRTVAEVQETLAEMIRQHQKSQLCKSTANGPDKNEPEVEAEQPLCSSQSQCKEEKNEPLSLPELTKRLTEANQRMAKFPESIKAWPFPDVLECCLVLLLIRSHFPGCLAQEMQQQAQELLQKYGNTKTYRRHCQTFCM
notes: Gemin5, human, residues 841-1508 of the 1508-residue protein; Homodecamer (dimer of pentamers) by cryo-EM and static light scattering; also called G5C; G5C wild type; source: E. coli BL21 (DE3), purified (Ni-NTA, TEV cleavage, Superdex 200 gel filtration, mono Q); not shown: His6, N-terminal, cleaved; copies: 10
For B5, the “stoichiometry N” value in series [5] amounted to 10.

B6: G5C L1381D/M1384D/I1385D triple mutant (domain or fragment, human, UniProt Q8TEQ6 841-1508, looked up)
chain: KKRKARSLLPLSTSLDHRSKEELHQDCLVLATAKHSRELNEDVSADVEERFHLGLFTDRATLYRMIDIEGKGHLENGHPELFHQLMLWKGDLKGVLQTAAERGELTDNLVAMAPAAGYHVWLWAVEAFAKQLCFQDQYVKAASHLLSIHKVYEAVELLKSNHFYREAIAIAKARLRPEDPVLKDLYLSWGTVLERDGHYAVAAKCYLGATCAYDAAKVLAKKGDAASLRTAAELAAIVGEDELSASLALRCAQELLLANNWVGAQEALQLHESLQGQRLVFCLLELLSRHLEEKQLSEGKSSSSYHTWNTGTEGPFVERVTAVWKSIFSLDTPEQYQEAFQKLQNIKYPSATNNTPAKQLLLHICHDLTLAVLSQQMASWDEAVQALLRAVVRSYDSGSFTIMQEVYSAFLPDGCDHLRDKLGDHQSPATPAFKSLEAFFLYGRLYEFWWSLSRPCPNSSVWVRAGHRTLSVEPSQQLDTASTEETDPETSQPEPNRPSELDLRLTEEGERMLSTFKELFSEKHASLQNSQRTVAEVQETDAEDDRQHQKSQLCKSTANGPDKNEPEVEAEQPLCSSQSQCKEEKNEPLSLPELTKRLTEANQRMAKFPESIKAWPFPDVLECCLVLLLIRSHFPGCLAQEMQQQAQELLQKYGNTKTYRRHCQTFCM
notes: Gemin5, human, residues 841-1508 with L1381D, M1384D and I1385D; also called M2; source: E. coli BL21 (DE3), purified in the same way as wild-type G5C; not shown: His6, N-terminal, cleaved
Turning to B6, the “stoichiometry N” value in series [4] was 2 and 4.
